According to the nanobody polyreactivity screen of Harvey et al. (2022):

Experiment: yeast display, Sf9 membrane polyspecificity reagent, FACS + sequencing; frameworks hold sequencing errors
How it was run: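 A synthetic nanobody library was expressed on Saccharomyces cerevisiae BJ5465 by galactose induction for 36–48 hours. The library was stained for 1 hour at 4 °C with 10% biotinylated, detergent-solubilized Sf9 membrane reagent and enriched with streptavidin microbeads before FACS. Low and high (top ~1%) gates were set on anti-HA fluorescence for expression and streptavidin fluorescence for reagent binding, and each polyreactivity label reflects the gate of origin.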

Sequence | polyreactivity (PSR sort gate)
QVQLVESGGGLVQAGGSLRLSCAASGSTFEYYAMGWYRQAPGKEREFVAAITSTGGSTHYADSVKGRFTISRDNAKNTVYLQMNSLKPEDTAVYVCGKRSYGQTRAYSAGNYWGQGNQVTVSS | low polyreactivity
QVQLVESGGGLVQAGGSLRLSCAASGSTFEYYAMGWYRQAPGKERELVAAISTGGSTYYADSVKGRFTISRDNAKNTVYLQMNSLKPEDTAVYYCAALYRTSYVRMGYWGQGTQVTVSS | high polyreactivity
QVQLVESGGGLVQAGGSLRLSCAASGSTFFFNAMGWYRQAPGKERELVAAITGSGGSTYYADSVKGRFTISRDNAKNTVYLQMNSLKPEDTAVYYCNASSPYDYDWGQGTQVTVSS | low polyreactivity
QVQLVESGGGLVQAGGSLRLSCAASGSTFFFNAMGWYRQAPGKERELVAAITVRSGSTYYADSVKGRFTISRDNAKSTVYLQMNSLKPEDTAVYFCAADYSPGRSVVDYWGQGTQVTVSS | low polyreactivity
QVQLVESGGGLVQAGGSLRLSCAASGSTFFFYAMGWYRQAPGKERELVAAISSGGTTDYADSVKGRFTISRDNAKNTVYLQMNSLKPEDTAVYYCAATYVYWTWGYDYWGQGTQVTVSS | low polyreactivity
QVQLVESGGGLVQAGGSLRLSCAASGSTFFGNAMGWYRQAPGKERELVAAITSGGSTNYADSVKGRFTFSRDNAKNTVSLQMNSLKPEDTAVYDCAKPSRWGWTGFYAYDYWGQGTQVTVSS | low polyreactivity
QVQLVESGGGLVQAGGSLRLSCAASGSTFFGYAMGWYREAPGKERELVAAISSRGGSTYYADSVKGRFTISRDNAKKTVYLQMNSLKPEDTAVYYCNKVYHYPYYYWGQGTQVTVSS | high polyreactivity
QVQLVESGGGLVQAGGSLRLSCAASGSTFFGYAMGWYRQAPGKERELVAAITSGGSTNYADSVKGRFTISRDNAKNTVYLQMNRLIPDDTAVYFCARRWYRGYGYWGQGTQVTVSS | high polyreactivity
QVQLVESGGGLVQAGGSLRLSCAASGSTFFIYAMGRYRQAPGKERELVAAISGSGGTTYYADSVKGRFTISRDNAKNTVYLQMNSLKPEDTAVYYCAARTFSAFWRGGYDYWGQGTQVTVSS | low polyreactivity
QVQLVESGGGLVQAGGSLRLSCAASGSTFFIYAMGWYRQAPGKERELVAVIRNIDVRTYYADSVKGRFTISRDNAKNTVYLQMNSLKPEDTAVYYCAADELLDESVDMYYWGQGTQVTVSS | low polyreactivity
QVQLVESGGGLVQAGGSLRLSCAASGSTFFLYMGWYRQAHGKERELVAAITVSGGSTYYADSVKGRFTISRDNAKNTVYLQMNSLKPEDTAVYYCNADWVMRYDYWGQGTQVTVSS | low polyreactivity
QVQLVESGGGLVQAGGSLRLSCAASGSTFFNYAMGWYRQAPGKEREFVARIRWRGGSTYYADSVKGRFTISRDNAKNTVYLQMNSLKPEDTAVYYCNADYWGHGGLYDYWGQGTQVTVSS | high polyreactivity
QVQLVESGGGLVQAGGSLRLSCAASGSTFFNYAMGWYRQAPGKERELVAAISSSGGRTYYADSVKGRFTISRDNAKNTVYLQMNSLKPEDTAVYYCAASGRKNGMNYWGQGTQVTVSS | high polyreactivity
QVQLVESGGGLVQAGGSLRLSCAASGSTFFPYAMGWYRQAPGKERELVAAIRWSGGRTYYADSVKGRFTISRDNAKNTVYLQMNSLKPEDTAVYYCAADKYLYYDYWGQGTQVTVSS | high polyreactivity
QVQLVESGGGLVQAGGSLRLSCAASGSTFFPYAMGWYRQAPGKERELVAAIRWSGGRTYYADSVKGRFTISRDNAKNTVYLQMNSLKPEDTAVYYCAAEKYLDYDYWGQGTQVTVSS | high polyreactivity
QVQLVESGGGLVQAGGSLRLSCAASGSTFFPYAMGWYRQAPGKERELVAAITSGGRTKYADSVKGRFTISRDNAKNTVYLQMNSLKPEDTAVYYCAARGLIKEYGGPYRRFGYWGQGTQVTVSS | high polyreactivity

Sequence | polyreactivity (PSR sort gate)
QVQLVESGGGLVQAGGSLRLSCAASGSTFFPYAMGWYRQAPGKERELVAGISSDGGTSYADSVKGRFTISRDNAKNTVYLQMNSLKPEDTAVYYCAARGLLWYYSWRYYYWGQGTQVTVSS | low polyreactivity
QVQLVESGGGLVQAGGSLRLSCAASGSTFFRNAMGWYRQAPGKERELVAAITWSGGSTYYADSVKGRFTISRDNAKNTVYLQMNSLKPEDTAVYYCAAGLSYWTPHYYPFDYWGQGTQVTVSS | low polyreactivity
QVQLVESGGGLVQAGGSLRLSCAASGSTFFRYAMGWYRPAPGKEREFVAAISKRGGSTHYADSVKGRFTISRDNAKNTVYLQMNSLKPEDTAVYYCAASSFTSSYNFWGQGTQVTVSS | high polyreactivity
QVQLVESGGGLVQAGGSLRLSCAASGSTFFRYAMGWYRQAPGKEREFVAAITWSGTGTYYADSVKGRFTISRDNAENTVYLQMNSLKPEDTAVYYCNAEPFDLWAFYYGYVYGYYHWGQGTQVTVSS | high polyreactivity
QVQLVESGGGLVQAGGSLRLSCAASGSTFFRYAMGWYRQAPGKEREFVAAITWSGTGTYYADSVKGRFTISRDNAKNTVYLQMNSLKPEDTAVYYCNADPFDLWAFYYGYVYGYYHWGQGTQVTVSS | high polyreactivity
QVQLVESGGGLVQAGGSLRLSCAASGSTFFRYAMGWYRQAPGKEREFVAAITWSGTGTYYADSVKGRFTISRDNAKNTVYLQMNSLKPEDTAVYYCNAEPFDLWAFYYGYVYGYYHWGQGTQVTVSS | high polyreactivity
QVQLVESGGGLVQAGGSLRLSCAASGSTFFSNAMGWSRQAPGKERELVAAISWSGGSTYYADSVKGRFTISRDNAKNTVYLQMNSLKPEDTAVYYCAASFWTDYYRYDYWGQGSQVTVSS | low polyreactivity
QVQLVESGGGLVQAGGSLRLSCAASGSTFFSNAMGWYRQAPGKERELVATIRFGGGSTYADSVKGRFTISRDNAKNTVYLQMNSLIPEDTAVYYCAADDSDKRYTRSWYGYWGQGTQVTVSS | low polyreactivity
QVQLVESGGGLVQAGGSLRLSCAASGSTFFSYTMGWSRQAPGKEWELVAAITWSAGTTYYADSVKGRFTISRDNAKNTVYLQMNSLKPEDTAVYYCNADLSRYPTAVRMDYWGQGTQVTVSS | low polyreactivity
QVQLVESGGGLVQAGGSLRLSCAASGSTFFTNAMGWYRQAPAKERELVAVITKRGGSTYYADSVKGRFTISRDKAKNTVYLQMNSLKPEDTAVYYCAARIPKQQGYGYWGHGTQVTVSS | high polyreactivity
QVQLVESGGGLVQAGGSLRLSCAASGSTFFVYAMGWYRQAPGNESEFVAAISKSGGSTYYADSEKGRFTISRDNAKNTVYLQMNSLKPEDTAVYYCAKYSGVNSIVGNDYWGQGTQVTVSS | high polyreactivity
QVQLVESGGGLVQAGGSLRLSCAASGSTFFVYDMGWYRQAPGKERELVAAISSGGTTTYADSVKGRFTISRDNAKNTVNLQMNSLKPEDTAVYYCNARQYTRPYAFDYWGQGTQVTVSS | low polyreactivity
QVQLVESGGGLVQAGGSLRLSCAASGSTFFVYDMGWYRQAPGKEREMVAAISISDGGTYYADSVKWRFTISRDNAKNYVYLQMNSLKPEDTAVYYCADDYSERYFRGYVYLGQGTQVTVSS | low polyreactivity
QVQLVESGGGLVQAGGSLRLSCAASGSTFFYNAMGWYRQAPGKERELVAAITVTGTSTYYADSVKGRFTISRDNAKNTVYLQMNSLKPEDTGVYYCNTSLKRRRLRFNYWGQGTQVTVSS | low polyreactivity
QVQLVESGGGLVQAGGSLRLSCAASGSTFFYYAMGWYRQAPGKERELVAAISGGGGDTTYADSVKGRFTISRDNAKNTVYLQMNSLKPEDTAVYYCAAVPGSFGSGIFDYWGQGTQATVSS | low polyreactivity
QVQLVESGGGLVQAGGSLRLSCAASGSTFFYYAMGWYRQAPGKERELVAAITRGSRTKYADSVKGRFTISRDNAKNTVYLQMNSLKPEDTAVYYCAARKNLYPYCYLWWQDYDYWVQGTQVTVSS | high polyreactivity
